Assay results reported in patent publication US20260232827A1 (Zymeworks, published 2026).

Assays:
[1] = target: T1, Construct 5 (chimeric human NaPi2b, swap in NaPi2a in 304-348) (human); test: flow cytometry, transfected HEK293-6e cells, antibody 2 nM;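 also: transfected cells exposed to test antibody 24 h at 4 °C to block internalization, at least 1,000 events per well, background is mean MFI of unstained cells lacking primary antibody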
T1 construct: also called CL_#13436

[2] = target: T2, Construct 1 (chimeric human NaPi2b, swap in NaPi2c in 239-259) (human); test: as above
T2 construct: also called CL_#29914

[3] = target: T3, mouse NaPi2b (mouse, UniProt Q9DBP0 1-697); test: flow cytometry on HEK293-6e cells transfected with mouse NaPi2b, 24 h at 4 C, anti-human IgG Fc AF647
T3 construct: also called Ms NaPi2b; CL #13476
T3 sequence: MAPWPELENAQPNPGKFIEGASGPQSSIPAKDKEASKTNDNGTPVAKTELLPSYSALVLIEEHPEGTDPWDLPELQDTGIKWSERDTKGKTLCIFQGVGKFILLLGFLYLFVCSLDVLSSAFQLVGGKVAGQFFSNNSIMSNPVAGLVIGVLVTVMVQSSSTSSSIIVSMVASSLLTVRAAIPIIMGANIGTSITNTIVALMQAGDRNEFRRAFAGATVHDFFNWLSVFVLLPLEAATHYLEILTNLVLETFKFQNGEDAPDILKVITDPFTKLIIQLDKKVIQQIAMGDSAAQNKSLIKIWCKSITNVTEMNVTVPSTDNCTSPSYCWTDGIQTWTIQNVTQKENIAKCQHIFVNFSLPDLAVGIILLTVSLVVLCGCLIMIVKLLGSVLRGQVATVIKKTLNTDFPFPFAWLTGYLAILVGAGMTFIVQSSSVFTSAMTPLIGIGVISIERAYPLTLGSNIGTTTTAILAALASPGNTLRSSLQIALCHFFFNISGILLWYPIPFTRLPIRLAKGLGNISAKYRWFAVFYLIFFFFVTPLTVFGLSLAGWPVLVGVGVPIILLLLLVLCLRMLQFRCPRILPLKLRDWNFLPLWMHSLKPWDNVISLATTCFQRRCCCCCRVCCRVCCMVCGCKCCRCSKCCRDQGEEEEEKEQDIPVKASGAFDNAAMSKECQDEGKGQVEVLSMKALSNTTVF

[4] = target: T4, cynomolgus monkey NaPi2b (cynomolgus monkey, UniProt O95436 1-690 (human entry)); test: flow cytometry on HEK293-6e cells transfected with cynomolgus monkey NaPi2b, 24 h at 4 C, anti-human IgG Fc AF647
T4 construct: also called Cyno NaPi2b; Cy NaPi2b
T4 chain: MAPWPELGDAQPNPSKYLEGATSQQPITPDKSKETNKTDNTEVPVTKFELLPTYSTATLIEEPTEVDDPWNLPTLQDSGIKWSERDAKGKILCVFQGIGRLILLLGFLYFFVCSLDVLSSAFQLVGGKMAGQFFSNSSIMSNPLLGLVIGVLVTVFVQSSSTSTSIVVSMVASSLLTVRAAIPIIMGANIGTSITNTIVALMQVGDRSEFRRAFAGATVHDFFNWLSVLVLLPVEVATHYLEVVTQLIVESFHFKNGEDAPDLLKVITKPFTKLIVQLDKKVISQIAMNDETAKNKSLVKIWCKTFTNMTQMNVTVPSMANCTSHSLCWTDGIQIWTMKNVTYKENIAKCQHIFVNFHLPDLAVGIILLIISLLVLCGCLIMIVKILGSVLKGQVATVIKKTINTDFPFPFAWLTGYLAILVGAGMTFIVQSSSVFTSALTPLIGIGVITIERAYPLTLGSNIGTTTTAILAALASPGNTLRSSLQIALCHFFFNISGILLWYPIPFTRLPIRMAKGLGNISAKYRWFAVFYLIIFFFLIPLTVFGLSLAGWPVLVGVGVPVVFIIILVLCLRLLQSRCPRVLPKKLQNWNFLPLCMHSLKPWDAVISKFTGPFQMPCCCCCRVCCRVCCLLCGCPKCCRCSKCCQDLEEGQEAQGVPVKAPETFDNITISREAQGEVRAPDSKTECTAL

[5] = target: T4, cynomolgus monkey NaPi2b; test: flow cytometry, HEK293-6e cells transfected with cynomolgus NaPi2b; apparent Kd
[6] = target: T5, human sodium-dependent phosphate transporter 2B (NaPi2b) (human, UniProt O95436 1-690); test: flow cytometry, HEK293-6e cells transfected with human NaPi2b
T5 construct: UniProt ID is given as 095436 [sic]; also called hNaPi2b; Hu NaPi2b
T5 sequence: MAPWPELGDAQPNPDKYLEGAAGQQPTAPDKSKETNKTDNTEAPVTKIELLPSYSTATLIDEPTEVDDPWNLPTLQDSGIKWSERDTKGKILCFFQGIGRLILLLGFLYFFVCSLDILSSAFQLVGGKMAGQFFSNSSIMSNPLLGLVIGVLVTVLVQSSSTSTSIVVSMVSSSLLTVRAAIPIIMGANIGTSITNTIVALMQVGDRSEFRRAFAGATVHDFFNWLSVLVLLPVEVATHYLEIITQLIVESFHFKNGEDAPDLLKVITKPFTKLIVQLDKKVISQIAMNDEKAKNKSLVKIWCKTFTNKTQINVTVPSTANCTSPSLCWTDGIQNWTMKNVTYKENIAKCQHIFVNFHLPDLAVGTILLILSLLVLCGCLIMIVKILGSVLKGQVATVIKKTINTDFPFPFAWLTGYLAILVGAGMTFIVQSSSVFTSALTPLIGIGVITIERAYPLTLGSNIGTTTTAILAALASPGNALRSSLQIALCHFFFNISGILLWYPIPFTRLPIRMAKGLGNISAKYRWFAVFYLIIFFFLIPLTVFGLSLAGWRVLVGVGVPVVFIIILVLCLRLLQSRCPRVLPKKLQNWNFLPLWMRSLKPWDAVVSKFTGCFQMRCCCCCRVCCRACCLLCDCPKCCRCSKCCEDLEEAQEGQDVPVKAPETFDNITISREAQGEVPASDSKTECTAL

[7] = target: T5, human sodium-dependent phosphate …; test: flow cytometry, HEK293-6e cells transfected with human NaPi2b; apparent Kd
[8] = target: T4, cynomolgus monkey NaPi2b; test: flow cytometry, HEK293-6e cells transfected with cynomolgus NaPi2b

B1: palivizumab (v21995), anti-RSV antibody, negative control (antibody, human IgG1, kappa, V domains shown)
VH: QVTLRESGPALVKPTQTLTLTCTFSGFSLSTSGMSVGWIRQPPGKALEWLADIWWDDKKDYNPSLKSRLTISKDTSKNQVVLKVTNMDPADTATYYCARSMITNWYFDVWGAGTTVTVSS
VL: DIQMTQSPSTLSASVGDRVTITCKSQLSVGYMHWYQQKPGKAPKLLIYDTSKLASGVPSRFSGSGSGTEFTLTISSLQPDDFATYYCFQGSGYPFTFGGGTKLEIKR
Background-Subtracted AF647 Mean Fluorescence Intensity [1]: -2 MFI | Background-Subtracted AF647 Mean Fluorescence Intensity [2]: -30 MFI

B2: v38591 (humanized anti-NaPi2b antibody, wild-type Fc) (antibody, human IgG1, kappa)
heavy: not shown
light: DVQMTQSPSSLSASVGDRVTITCRASQDVYSYLNWYQQKPGKAVKLLIYYTSRLQSGVPSRFSGSGSGTDYTLTISSLQPEDFATYYCQQYNIFPWTFGQGTKLEIKRTVAAPSVFIFPPSDEQLKSGTASVVCLLNNFYPREAKVQWKVDNALQSGNSQESVTEQDSKDSTYSLSSTLTLSKADYEKHKVYACEVTHQGLSSPVTKSFNRGEC
notes: also called v38591 Wild-type; H1L2
EC50 (read off the curve) [3]: ~0.3 nM | EC50 (read off the curve) [4]: ~0.3 nM

B3: v38591 (humanized anti-NaPi2b antibody, H1L2, wild-type Fc, heavy chains with C-terminal lysine) (antibody, human IgG1, kappa)
heavy: not shown
light: DVQMTQSPSSLSASVGDRVTITCRASQDVYSYLNWYQQKPGKAVKLLIYYTSRLQSGVPSRFSGSGSGTDYTLTISSLQPEDFATYYCQQYNIFPWTFGQGTKLEIKRTVAAPSVFIFPPSDEQLKSGTASVVCLLNNFYPREAKVQWKVDNALQSGNSQESVTEQDSKDSTYSLSSTLTLSKADYEKHKVYACEVTHQGLSSPVTKSFNRGEC
notes: Full-size human IgG1/kappa antibody; also called v38591 (wild-type Fc)
Background-Subtracted AF647 Mean Fluorescence Intensity [1]: -12 MFI | Background-Subtracted AF647 Mean Fluorescence Intensity [2]: 1550 MFI

B4: lifastuzumab (v18993), reference anti-NaPi2b antibody (antibody, human IgG1, kappa)
heavy 1: GEVQLVESGGGLVQPGGSLRLSCAASGFSFSDFAMSWVRQAPGKGLEWVATIGRVAFHTYYPDSMKGRFTISRDNSKNTLYLQMNSLRAEDTAVYYCARHRGFDVGHFDFWGQGTLVTVSSASTKGPSVFPLAPSSKSTSGGTAALGCLVKDYFPEPVTVSWNSGALTSGVHTFPAVLQSSGLYSLSSVVTVPSSSLGTQTYICNVNHKPSNTKVDKKVEPKSCDKTHTCPPCPAPELLGGPSVFLFPPKPKDTLMISRTPEVTCVVVDVSHEDPEVKFNWYVDGVEVHNAKTKPREEQYNSTYRVVSVLTVLHQDWLNGKEYKCKVSNKALPAPIEKTISKAKGQPREPQVYVYPPSRDELTKNQVSLTCLVKGFYPSDIAVEWESNGQPENNYKTTPPVLDSDGSFALVSKLTVDKSRWQQGNVFSCSVMHEALHNHYTQKSLSLSPG
heavy 2: not shown
light: GDIQMTQSPSSLSASVGDRVTITCRSSETLVHSSGNTYLEWYQQKPGKAPKLLIYRVSNRFSGVPSRFSGSGSGTDFTLTISSLQPEDFATYYCFQGSFNPLTFGQGTKVEIKRTVAAPSVFIFPPSDEQLKSGTASVVCLLNNFYPREAKVQWKVDNALQSGNSQESVTEQDSKDSTYSLSSTLTLSKADYEKHKVYACEVTHQGLSSPVTKSFNRGEC
Background-Subtracted AF647 Mean Fluorescence Intensity [1]: 25 MFI | Background-Subtracted AF647 Mean Fluorescence Intensity [2]: 1230 MFI

B5: v18992 (MX35), reference anti-NaPi2b antibody (antibody, human IgG1, kappa)
heavy 1: GQVQLVQSGAEVVKPGASVKMSCKASGYTFTGYNIHWVKQAPGQGLEWIGAIYPGNGDTSYKQKFRGRATLTADTSTSTVYMELSSLRSEDSAVYYCARGETARATFAYWGQGTLVTVSSASTKGPSVFPLAPSSKSTSGGTAALGCLVKDYFPEPVTVSWNSGALTSGVHTFPAVLQSSGLYSLSSVVTVPSSSLGTQTYICNVNHKPSNTKVDKKVEPKSCDKTHTCPPCPAPELLGGPSVFLFPPKPKDTLMISRTPEVTCVVVDVSHEDPEVKFNWYVDGVEVHNAKTKPREEQYNSTYRVVSVLTVLHQDWLNGKEYKCKVSNKALPAPIEKTISKAKGQPREPQVYVYPPSRDELTKNQVSLTCLVKGFYPSDIAVEWESNGQPENNYKTTPPVLDSDGSFALVSKLTVDKSRWQQGNVFSCSVMHEALHNHYTQKSLSLSPG
heavy 2: not shown
light: GDIQMTQSPSSLSASVGDRVTITCSASQDIGNFLNWYQQKPGKTVKVLIYYTSSLYSGVPSRFSGSGSGTDYTLTISSLQPEDFATYYCQQYSKLPLTFGQGTKLELKRTVAAPSVFIFPPSDEQLKSGTASVVCLLNNFYPREAKVQWKVDNALQSGNSQESVTEQDSKDSTYSLSSTLTLSKADYEKHKVYACEVTHQGLSSPVTKSFNRGEC
Kd [5]: 31 nM | Bmax [6]: 1900 | Kd [7]: 1.98 nM | Bmax [8]: 2360

B6: MX35 (v18992), reference anti-NaPi2b antibody (antibody, human IgG1, kappa)
heavy 1: GQVQLVQSGAEVVKPGASVKMSCKASGYTFTGYNIHWVKQAPGQGLEWIGAIYPGNGDTSYKQKFRGRATLTADTSTSTVYMELSSLRSEDSAVYYCARGETARATFAYWGQGTLVTVSSASTKGPSVFPLAPSSKSTSGGTAALGCLVKDYFPEPVTVSWNSGALTSGVHTFPAVLQSSGLYSLSSVVTVPSSSLGTQTYICNVNHKPSNTKVDKKVEPKSCDKTHTCPPCPAPELLGGPSVFLFPPKPKDTLMISRTPEVTCVVVDVSHEDPEVKFNWYVDGVEVHNAKTKPREEQYNSTYRVVSVLTVLHQDWLNGKEYKCKVSNKALPAPIEKTISKAKGQPREPQVYVYPPSRDELTKNQVSLTCLVKGFYPSDIAVEWESNGQPENNYKTTPPVLDSDGSFALVSKLTVDKSRWQQGNVFSCSVMHEALHNHYTQKSLSLSPG
heavy 2: not shown
light: GDIQMTQSPSSLSASVGDRVTITCSASQDIGNFLNWYQQKPGKTVKVLIYYTSSLYSGVPSRFSGSGSGTDYTLTISSLQPEDFATYYCQQYSKLPLTFGQGTKLELKRTVAAPSVFIFPPSDEQLKSGTASVVCLLNNFYPREAKVQWKVDNALQSGNSQESVTEQDSKDSTYSLSSTLTLSKADYEKHKVYACEVTHQGLSSPVTKSFNRGEC
Background-Subtracted AF647 Mean Fluorescence Intensity [1]: 16 MFI | Background-Subtracted AF647 Mean Fluorescence Intensity [2]: 1890 MFI
